IntAct's records for PubMed 21785410

B1: NAP1-binding protein (Saccharomyces cerevisiae), P52919 (parent)
chain: MLKSVQGLWKDFFGIRDDGRKREYGSLDEVRKRSALRSRRKQMRPTGKSVLKRPRKVTDRKTEEKIRTNRRKTPKRRLTKIFQTIRDVFSNDNENMSKMQNVCGDMTRILKKRSQGRPSYMDTDTAKSRILRSDAFKRKISELKYNKQRISELRSGSSDGSSGKDRNQSLYLDREILLQRQIKKRDEKIKALESKLQSLQEALNYSNEKYRILEDLLDSSNIHPSYTKSRRTMSNLARENDEIKPLKIDLSPSPIRRTNSLFTSSPMKTYNRDGNIPEMQPLQENISPACPTPPYRSRETEKEDETLSPISVDFSSYLS

Variants of: B1
Details: with nic96_yeast NIC96, P34077
Sequence of nic96_yeast NIC96, P34077 (P34077 whole entry): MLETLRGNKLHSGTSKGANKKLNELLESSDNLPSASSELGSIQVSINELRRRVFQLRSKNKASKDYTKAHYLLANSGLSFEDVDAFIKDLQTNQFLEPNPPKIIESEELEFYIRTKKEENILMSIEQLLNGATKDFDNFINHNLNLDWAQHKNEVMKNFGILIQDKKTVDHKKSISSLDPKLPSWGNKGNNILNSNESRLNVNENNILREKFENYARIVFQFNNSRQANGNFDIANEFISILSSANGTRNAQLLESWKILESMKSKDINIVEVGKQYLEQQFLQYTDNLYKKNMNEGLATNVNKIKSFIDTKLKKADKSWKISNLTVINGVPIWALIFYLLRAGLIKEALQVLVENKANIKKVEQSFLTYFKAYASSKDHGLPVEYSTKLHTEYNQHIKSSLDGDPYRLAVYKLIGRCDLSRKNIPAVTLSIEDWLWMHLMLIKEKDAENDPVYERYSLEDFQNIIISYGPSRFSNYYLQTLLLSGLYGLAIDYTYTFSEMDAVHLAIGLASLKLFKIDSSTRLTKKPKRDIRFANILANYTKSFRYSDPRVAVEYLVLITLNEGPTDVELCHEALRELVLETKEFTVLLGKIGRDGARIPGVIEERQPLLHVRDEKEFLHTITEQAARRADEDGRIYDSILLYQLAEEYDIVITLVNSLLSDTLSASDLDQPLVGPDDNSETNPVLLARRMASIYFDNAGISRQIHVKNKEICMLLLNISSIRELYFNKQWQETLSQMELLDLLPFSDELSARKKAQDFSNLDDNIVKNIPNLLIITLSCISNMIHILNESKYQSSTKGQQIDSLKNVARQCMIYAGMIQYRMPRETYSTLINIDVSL

Effect of a mutation on the interaction, disrupting interaction:
F13A
V5A
F12A
L2A
W9A
